Target: YB-1 (DNA-binding protein) (Homo sapiens, UniProt P67809 SEQ:1-317)
Assay: EMSA; 200 ng protein, 1 ug poly dI-dC, on ice 30 min
Conditions: tags: His tag (pET-28a(+), Ni-NTA purified from E. coli BL21-GOLD(DE3)); label: 32P 5' end
Method: An oligonucleotide consisting of the nucleotide sequence represented by SEQ ID No:.3 was mixed with an oligonucleotide consisting of the nucleotide sequence complementary with its nucleotide sequence, and this oligonucleotide mixture was boiled for 5 minutes and then allowed to stand at room temperature. Then this oligonucleotide mixture in an amount corresponding to 10 pmol DNA, 2 μl of a T4 kinase buffer, 1 μl of T4 kinase and 6 μl of γ-³²P-ATP(>3000 Ci/mmol, DAIICHI KAGAKU YAKUHIN, Catalog No.NEG-502A) were mixed with distilled water to make the total volume 20 μl, which was then kept at 37° C. for 1 hour. This mixture was loaded onto Quick Spin Column G-25 (Boehringer, Catalog No.1273949). This column was centrifuged (2,500 rpm, 5 minutes), and the effluent was recovered. The effluent thus recovered was subjected to a 10% polyacrylamide gel electrophoresis to recover a gel portion containing a ³²P-labelled double-stranded DNA. the gel portion thus recovered was combined with distilled water, kept at 37° C. over one whole day and night, and extracted to obtain the ³²P-labelled DNA (hereinafter referred to as the binding probe). Thus the binding probe was prepared. […]

YB-1 (DNA-binding protein), sequence (P67809 other isoform, or with tags, fused parts or gaps): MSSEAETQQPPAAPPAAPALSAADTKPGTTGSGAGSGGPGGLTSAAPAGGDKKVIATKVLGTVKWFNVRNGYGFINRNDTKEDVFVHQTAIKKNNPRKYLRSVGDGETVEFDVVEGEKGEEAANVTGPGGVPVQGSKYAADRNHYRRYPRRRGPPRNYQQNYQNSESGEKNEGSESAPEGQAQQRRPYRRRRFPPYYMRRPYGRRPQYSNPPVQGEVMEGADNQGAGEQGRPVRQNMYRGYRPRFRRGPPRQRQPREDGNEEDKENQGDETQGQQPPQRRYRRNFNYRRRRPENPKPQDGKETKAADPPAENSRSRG

Binder | binding result
COL1A2 promoter binding probe (dsDNA) DNA 1: CCCCCCATTCGCTCCCTCCTCTGCGCCCCCGCAGGCTC DNA 2: GAGCCTGCGGGGGCGCAGAGGAGGGAGCGAATGGGGGG | binds
COL1A2 promoter non-binding probe (dsDNA) DNA 1: CCCCGGATTCGCTCCCTCCTCTGCGCCCCCGCAGGCTC DNA 2: GAGCCTGCGGGGGCGCAGAGGAGGGAGCGAATCCGGGG | no binding

— patent publication US20020091083, “DNA-binding protein YB-1-containing collagen accumulation inhibitors” (Sumitomo Chemical Company, Ltd., published 2002)
